Source: the Human Domainome abundance scans (Beltran et al. 2025)
± gives the uncertainty stated by the source.

B1: POU domain, class 2, transcription factor 3, residues 186 to 260; numbered along this chain, Q9UKI9 (parent)
chain: SDLEELEKFAKTFKQRRIKLGFTQGDVGLAMGKLYGNDFSQTTISRFEALNLSFKNMCKLKPLLEKWLNDAESSP

Variants of: B1
Assay: abundance fitness (aPCA) (normalised: wild type 0, dead -1); higher = more abundant; growth selection in yeast, the domain comes from the species named
Conditions: Homo sapiens

In order of rising abundance fitness:
1. SDLEELEKFAKTFKQRRIKLGFTQGDVGLAMGKLYGNDFSQTTISRFEALNLSFKNMCKLKPLKEKWLNDAESSP  -1.01 ± 0.14
2. SDLEELEKFAKTFKQRRIKLGFTQGDVGLAMGKLYGNDFSQTTISRFEALNLSFKNMCKLDPLLEKWLNDAESSP  -0.898 ± 0.2
3. SDLEELEKFAKTFKQRRIKLGFTQGDVGLAMGKLYGNDFSQTTISRFEALNLSFKNMCKLKPLEEKWLNDAESSP  -0.888 ± 0.11
4. SDLEELEKFAKTFKQRRIKLGFTQGDVGLAMGKLYGNDFSQTTISRFEALNLSFKNMCKPKPLLEKWLNDAESSP  -0.855 ± 0.14
5. SDLEELEKFAKTFKQRRIKLGFTQGDVGLAMGKLYGNDFSQTTISRFEALNLSFKNMCKLKPLQEKWLNDAESSP  -0.836 ± 0.12
6. SDLEELEKFAKTFKQRRIKLGFTQGDVGLAMGKLYGNDFSQTTISRFEALNLSFKNMCKLPPLLEKWLNDAESSP  -0.829 ± 0.15
7. SDLEELEKFAKTFKQRRIKLGFTQGDVGLAMGKLYGNDFSQTTISRFEALNLSFKNMCKLKPLPEKWLNDAESSP  -0.802 ± 0.1
8. SDLEELEKFAKTFKQRRIKLGFTQGDVGLAMGKLYGNDFSQTTISRFEALNLSFKNMCKLKPLGEKWLNDAESSP  -0.784 ± 0.054
9. SDLEELEKFAKTFKQRRIKLGFTQGDVGLAMGKLYGNDFSQTTISRFEALNLSFKNMCKLKPLNEKWLNDAESSP  -0.776 ± 0.36
10. SDLEELEKFAKTFKQRRIKLGFTQGDVGLAMGKLYGNDFSQTTISRFEALNLSFKNMCKLNPLLEKWLNDAESSP  -0.628 ± 0.14
11. SDLEELEKFAKTFKQRRIKLGFTQGDVGLAMGKLYGNDFSQTTISRFEALNLSFKNMCKLKYLLEKWLNDAESSP  -0.624 ± 0.24
12. SDLEELEKFAKTFKQRRIKLGFTQGDVGLAMGKLYGNDFSQTTISRFEALNLSFKNMCKLKPLDEKWLNDAESSP  -0.557 ± 0.16
13. SDLEELEKFAKTFKQRRIKLGFTQGDVGLAMGKLYGNDFSQTTISRFEALNLSFKNMCKRKPLLEKWLNDAESSP  -0.519 ± 0.04
14. SDLEELEKFAKTFKQRRIKLGFTQGDVGLAMGKLYGNDFSQTTISRFEALNLSFKNMCKNKPLLEKWLNDAESSP  -0.395 ± 0.068
15. SDLEELEKFAKTFKQRRIKLGFTQGDVGLAMGKLYGNDFSQTTISRFEALNLSFKNMCKLKWLLEKWLNDAESSP  -0.365 ± 0.04
16. SDLEELEKFAKTFKQRRIKLGFTQGDVGLAMGKLYGNDFSQTTISRFEALNLSFKNMCKLFPLLEKWLNDAESSP  -0.324 ± 0.092
17. SDLEELEKFAKTFKQRRIKLGFTQGDVGLAMGKLYGNDFSQTTISRFEALNLSFKNMCKHKPLLEKWLNDAESSP  -0.285 ± 0.14
18. SDLEELEKFAKTFKQRRIKLGFTQGDVGLAMGKLYGNDFSQTTISRFEALNLSFKNMCKLEPLLEKWLNDAESSP  -0.273 ± 0.051
19. SDLEELEKFAKTFKQRRIKLGFTQGDVGLAMGKLYGNDFSQTTISRFEALNLSFKNMCKLTPLLEKWLNDAESSP  -0.254 ± 0.05
20. SDLEELEKFAKTFKQRRIKLGFTQGDVGLAMGKLYGNDFSQTTISRFEALNLSFKNMCKQKPLLEKWLNDAESSP  -0.242 ± 0.057
21. SDLEELEKFAKTFKQRRIKLGFTQGDVGLAMGKLYGNDFSQTTISRFEALNLSFKNMCKLGPLLEKWLNDAESSP  -0.241 ± 0.032
22. SDLEELEKFAKTFKQRRIKLGFTQGDVGLAMGKLYGNDFSQTTISRFEALNLSFKNMCKLKNLLEKWLNDAESSP  -0.24 ± 0.13
23. SDLEELEKFAKTFKQRRIKLGFTQGDVGLAMGKLYGNDFSQTTISRFEALNLSFKNMCKLKPLIEKWLNDAESSP  -0.224 ± 0.063
24. SDLEELEKFAKTFKQRRIKLGFTQGDVGLAMGKLYGNDFSQTTISRFEALNLSFKNMCKLKPFLEKWLNDAESSP  -0.221 ± 0.079
25. SDLEELEKFAKTFKQRRIKLGFTQGDVGLAMGKLYGNDFSQTTISRFEALNLSFKNMCKLKCLLEKWLNDAESSP  -0.201 ± 0.062
26. SDLEELEKFAKTFKQRRIKLGFTQGDVGLAMGKLYGNDFSQTTISRFEALNLSFKNMCKLLPLLEKWLNDAESSP  -0.198 ± 0.041
27. SDLEELEKFAKTFKQRRIKLGFTQGDVGLAMGKLYGNDFSQTTISRFEALNLSFKNMCKLCPLLEKWLNDAESSP  -0.194 ± 0.083
28. SDLEELEKFAKTFKQRRIKLGFTQGDVGLAMGKLYGNDFSQTTISRFEALNLSFKNMCKLKFLLEKWLNDAESSP  -0.191 ± 0.1
29. SDLEELEKFAKTFKQRRIKLGFTQGDVGLAMGKLYGNDFSQTTISRFEALNLSFKNMCKLHPLLEKWLNDAESSP  -0.183 ± 0.094
30. SDLEELEKFAKTFKQRRIKLGFTQGDVGLAMGKLYGNDFSQTTISRFEALNLSFKNMCKLWPLLEKWLNDAESSP  -0.181 ± 0.041
31. SDLEELEKFAKTFKQRRIKLGFTQGDVGLAMGKLYGNDFSQTTISRFEALNLSFKNMCKLKPYLEKWLNDAESSP  -0.173 ± 0.11
32. SDLEELEKFAKTFKQRRIKLGFTQGDVGLAMGKLYGNDFSQTTISRFEALNLSFKNMCKLKQLLEKWLNDAESSP  -0.167 ± 0.054
33. SDLEELEKFAKTFKQRRIKLGFTQGDVGLAMGKLYGNDFSQTTISRFEALNLSFKNMCKLKTLLEKWLNDAESSP  -0.163 ± 0.051
34. SDLEELEKFAKTFKQRRIKLGFTQGDVGLAMGKLYGNDFSQTTISRFEALNLSFKNMCKLKALLEKWLNDAESSP  -0.16 ± 0.039
35. SDLEELEKFAKTFKQRRIKLGFTQGDVGLAMGKLYGNDFSQTTISRFEALNLSFKNMCKLSPLLEKWLNDAESSP  -0.153 ± 0.041
36. SDLEELEKFAKTFKQRRIKLGFTQGDVGLAMGKLYGNDFSQTTISRFEALNLSFKNMCKLKRLLEKWLNDAESSP  -0.149 ± 0.032
37. SDLEELEKFAKTFKQRRIKLGFTQGDVGLAMGKLYGNDFSQTTISRFEALNLSFKNMCKLKPLCEKWLNDAESSP  -0.148 ± 0.055
38. SDLEELEKFAKTFKQRRIKLGFTQGDVGLAMGKLYGNDFSQTTISRFEALNLSFKNMCKLKPLFEKWLNDAESSP  -0.135 ± 0.077
39. SDLEELEKFAKTFKQRRIKLGFTQGDVGLAMGKLYGNDFSQTTISRFEALNLSFKNMCKLMPLLEKWLNDAESSP  -0.133 ± 0.045
40. SDLEELEKFAKTFKQRRIKLGFTQGDVGLAMGKLYGNDFSQTTISRFEALNLSFKNMCKLIPLLEKWLNDAESSP  -0.128 ± 0.063
41. SDLEELEKFAKTFKQRRIKLGFTQGDVGLAMGKLYGNDFSQTTISRFEALNLSFKNMCKLKVLLEKWLNDAESSP  -0.128 ± 0.036
42. SDLEELEKFAKTFKQRRIKLGFTQGDVGLAMGKLYGNDFSQTTISRFEALNLSFKNMCKLKPELEKWLNDAESSP  -0.127 ± 0.039
43. SDLEELEKFAKTFKQRRIKLGFTQGDVGLAMGKLYGNDFSQTTISRFEALNLSFKNMCKLKELLEKWLNDAESSP  -0.118 ± 0.041
44. SDLEELEKFAKTFKQRRIKLGFTQGDVGLAMGKLYGNDFSQTTISRFEALNLSFKNMCKYKPLLEKWLNDAESSP  -0.117 ± 0.052
45. SDLEELEKFAKTFKQRRIKLGFTQGDVGLAMGKLYGNDFSQTTISRFEALNLSFKNMCKLYPLLEKWLNDAESSP  -0.108 ± 0.08
46. SDLEELEKFAKTFKQRRIKLGFTQGDVGLAMGKLYGNDFSQTTISRFEALNLSFKNMCKLKPQLEKWLNDAESSP  -0.108 ± 0.055
47. SDLEELEKFAKTFKQRRIKLGFTQGDVGLAMGKLYGNDFSQTTISRFEALNLSFKNMCKKKPLLEKWLNDAESSP  -0.106 ± 0.058
48. SDLEELEKFAKTFKQRRIKLGFTQGDVGLAMGKLYGNDFSQTTISRFEALNLSFKNMCKLKPPLEKWLNDAESSP  -0.092 ± 0.047
49. SDLEELEKFAKTFKQRRIKLGFTQGDVGLAMGKLYGNDFSQTTISRFEALNLSFKNMCKLKGLLEKWLNDAESSP  -0.085 ± 0.031
50. SDLEELEKFAKTFKQRRIKLGFTQGDVGLAMGKLYGNDFSQTTISRFEALNLSFKNMCKLKILLEKWLNDAESSP  -0.082 ± 0.097
51. SDLEELEKFAKTFKQRRIKLGFTQGDVGLAMGKLYGNDFSQTTISRFEALNLSFKNMCKWKPLLEKWLNDAESSP  -0.074 ± 0.032
52. SDLEELEKFAKTFKQRRIKLGFTQGDVGLAMGKLYGNDFSQTTISRFEALNLSFKNMCKLKPWLEKWLNDAESSP  -0.07 ± 0.037
53. SDLEELEKFAKTFKQRRIKLGFTQGDVGLAMGKLYGNDFSQTTISRFEALNLSFKNMCKIKPLLEKWLNDAESSP  -0.067 ± 0.059
54. SDLEELEKFAKTFKQRRIKLGFTQGDVGLAMGKLYGNDFSQTTISRFEALNLSFKNMCKLVPLLEKWLNDAESSP  -0.065 ± 0.036
55. SDLEELEKFAKTFKQRRIKLGFTQGDVGLAMGKLYGNDFSQTTISRFEALNLSFKNMCKMKPLLEKWLNDAESSP  -0.062 ± 0.055
56. SDLEELEKFAKTFKQRRIKLGFTQGDVGLAMGKLYGNDFSQTTISRFEALNLSFKNMCKLKPGLEKWLNDAESSP  -0.06 ± 0.03
57. SDLEELEKFAKTFKQRRIKLGFTQGDVGLAMGKLYGNDFSQTTISRFEALNLSFKNMCKLKPTLEKWLNDAESSP  -0.059 ± 0.053
58. SDLEELEKFAKTFKQRRIKLGFTQGDVGLAMGKLYGNDFSQTTISRFEALNLSFKNMCKLKPSLEKWLNDAESSP  -0.055 ± 0.036
59. SDLEELEKFAKTFKQRRIKLGFTQGDVGLAMGKLYGNDFSQTTISRFEALNLSFKNMCKLAPLLEKWLNDAESSP  -0.05 ± 0.039
60. SDLEELEKFAKTFKQRRIKLGFTQGDVGLAMGKLYGNDFSQTTISRFEALNLSFKNMCKTKPLLEKWLNDAESSP  -0.039 ± 0.04
61. SDLEELEKFAKTFKQRRIKLGFTQGDVGLAMGKLYGNDFSQTTISRFEALNLSFKNMCKLKKLLEKWLNDAESSP  -0.036 ± 0.047
62. SDLEELEKFAKTFKQRRIKLGFTQGDVGLAMGKLYGNDFSQTTISRFEALNLSFKNMCKLKPVLEKWLNDAESSP  -0.032 ± 0.032
63. SDLEELEKFAKTFKQRRIKLGFTQGDVGLAMGKLYGNDFSQTTISRFEALNLSFKNMCKLKPCLEKWLNDAESSP  -0.031 ± 0.054
64. SDLEELEKFAKTFKQRRIKLGFTQGDVGLAMGKLYGNDFSQTTISRFEALNLSFKNMCKLKPMLEKWLNDAESSP  -0.027 ± 0.042
65. SDLEELEKFAKTFKQRRIKLGFTQGDVGLAMGKLYGNDFSQTTISRFEALNLSFKNMCKLKPNLEKWLNDAESSP  -0.026 ± 0.065
66. SDLEELEKFAKTFKQRRIKLGFTQGDVGLAMGKLYGNDFSQTTISRFEALNLSFKNMCKLKHLLEKWLNDAESSP  -0.025 ± 0.12
67. SDLEELEKFAKTFKQRRIKLGFTQGDVGLAMGKLYGNDFSQTTISRFEALNLSFKNMCKLKPRLEKWLNDAESSP  -0.022 ± 0.03
68. SDLEELEKFAKTFKQRRIKLGFTQGDVGLAMGKLYGNDFSQTTISRFEALNLSFKNMCKVKPLLEKWLNDAESSP  -0.02 ± 0.032
69. SDLEELEKFAKTFKQRRIKLGFTQGDVGLAMGKLYGNDFSQTTISRFEALNLSFKNMCKLRPLLEKWLNDAESSP  -0.02 ± 0.032
70. SDLEELEKFAKTFKQRRIKLGFTQGDVGLAMGKLYGNDFSQTTISRFEALNLSFKNMCKLQPLLEKWLNDAESSP  -0.017 ± 0.041
71. SDLEELEKFAKTFKQRRIKLGFTQGDVGLAMGKLYGNDFSQTTISRFEALNLSFKNMCKLKPHLEKWLNDAESSP  0.011 ± 0.061
72. SDLEELEKFAKTFKQRRIKLGFTQGDVGLAMGKLYGNDFSQTTISRFEALNLSFKNMCKLKPALEKWLNDAESSP  0.024 ± 0.039
73. SDLEELEKFAKTFKQRRIKLGFTQGDVGLAMGKLYGNDFSQTTISRFEALNLSFKNMCKLKPILEKWLNDAESSP  0.072 ± 0.061
